What all share (assay): SPR
Experiment [1] has as its target CD3/CD20 mG2aH4 bispecific antibody (not stated | mouse).
For experiment [2], the target named is CD3 mG2a (not stated | mouse).
Experiment [3] addresses CD3 mG1 D265A (not stated | mouse).
Experiment [4] addresses CD3/CD20 mG1KD D265A bispecific antibody (not stated | mouse).
The target of experiment [5] is CD3 mG2a D265A (not stated | mouse).
In experiment [6] the target is CD3/CD20 mG2aH4 bispecific antibody (not stated | mouse). This is another data set of the same source.
In experiment [7] the target is CD3 mG2a (not stated | mouse). The source holds these as a separate data set.

Where two headings read alike, the source gives them in different places.

Take “Mouse Fc gamma receptor FCGR2 (from UniProt P08101 30-330)”: the Kd worked out at 1990 nM in experiment [1] and 1570 nM in experiment [2].
As to “Mouse FcRn (from UniProt Q61559 22-365; P01887 21-119) (receptor)”, the Kd in experiment [3] came to 640 nM; in experiment [4] it was 670 nM; in experiment [5] it was 310 nM; in experiment [2], 320 nM.

B1: Mouse Fc gamma receptor FCGR3 (receptor)
chain: ALPKAVVKLDPPWIQVLKEDMVTLMCEGTHNPGNSSTQWFHNGRSIRSQVQASYTFKATVNDSGEYRCQMEQTRLSDPVDLGVISDWLLLQTPQRVFLEGETITLRCHSWRNKLLNRISFFHNEKSVRYHHYKSNFSIPKANHSHSGDYYCKGSLGSTQHQSKPVTITVQDPATTSSISLVWYHTAFSLVMCLLFAVDTGLYFYVRRNLQTPREYWRKSLSIRKHQAPQDK
As to B1, the Kd worked out at 1030 nM in experiment [6] and 625 nM in experiment [7].

B2: Mouse Fc gamma receptor FCGR1 (receptor)
chain: EVVNATKAVITLQPPWVSIFQKENVTLWCEGPHLPGDSSTQWFINGTAVQISTPSYSIPEASFQDSGEYRCQIGSSMPSDPVQLQIHNDWLLLQASRRVLTEGEPLALRCHGWKNKLVYNVVFYRNGKSFQFSSDSEVAILKTNLSHSGIYHCSGTGRHRYTSAGVSITVKELFTTPVLRASVSSPFPEGSLVTLNCETNLLLQRPGLQLHFSFYVGSKILEYRNTSSEYHIARAEREDAGFYWCEVATEDSSVLKRSPELELQVLGPQSSAPVWFHILFYLSVGIMFSLNTVLYVKIHRLQREKKYNLEVPLVSEQGKKANSFQQVRSDGVYEEVTATASQTTPKEAPDGPRSSVGDCGPEQPEPLPPSDSTGAQTSQS
Turning to B2, the Kd in experiment [6] worked out at 33 nM; in experiment [7] it was 21 nM.

B3: Mouse Fc gamma receptor FCGR4 (receptor)
chain: GLQKAVVNLDPKWVRVLEEDSVTLRCQGTFSPEDNSIKWFHNESLIPHQDANYVIQSARVKDSGMYRCQTALSTISDPVQLEVHMGWLLLQTTKWLFQEGDPIHLRCHSWQNRPVRKVTYLQNGKGKKYFHENSELLIPKATHNDSGSYFCRGLIGHNNKSSASFRISLGDPGSPSMFPPWHQITFCLLIGLLFAIDTVLYFSVRRGLQSPVADYEEPKIQWSKEPQDK
For B3, the Kd in experiment [6] stood at 39 nM; in experiment [7] it was 18 nM.
